17 proteins from publication PMC12723238, “Structural basis for T-cell intracellular antigen-1 amyloid fibril formation revealed by cryo-electron microscopy” (PNAS Nexus, 2025) can be followed below.

Series [1] deals with the molecule itself. The experiment in a line: thioflavin T fluorescence + negative-stain TEM; fibril formation of recombinant full-length TIA-1 from phase-separated condensates, with single-stranded DNA TC5, physiological buffer, 30 °C, up to 3 days.
Series [2] concerns the molecule itself. The experiment in a line: thioflavin T fluorescence + negative-stain TEM; fibril formation of the synthetic TFC peptide alone, 100 to 12.5 μM.
Series [3] deals with the molecule itself. The experiment in a line: cryo-EM structure; twisted amyloid fibrils of TIA-1 sPLD; fibrils grown by adding sonicated seeds to a monomer solution in 0.1% trifluoroacetic acid; helical reconstruction, two protofilaments.
Series [4] concerns the molecule itself. The series is described as follows: thioflavin T fluorescence + negative-stain TEM; fibril formation of TIA-1 sPLD from phase-separated condensates, without TC5, physiological buffer, 30 °C, 3 days.

Numbering of substitutions follows the chain as printed. Names may count otherwise.

B1: full-length human TIA-1 WT (natural protein, UniProt P31483 1-386, looked up)
chain: MEDEMPKTLYVGNLSRDVTEALILQLFSQIGPCKNCKMIMDTAGNDPYCFVEFHEHRHAAAALAAMNGRKIMGKEVKVNWATTPSSQKKDTSSSTVVSTQRSQDHFHVFVGDLSPEITTEDIKAAFAPFGRISDARVVKDMATGKSKGYGFVSFFNKWDAENAIQQMGGQWLGGRQIRTNWATRKPPAPKSTYESNTKQLSYDEVVNQSSPSNCTVYCGGVTSGLTEQLMRQTFSPFGQIMEIRVFPDKGYSFVRFNSHESAAHAIVSVNGTTIEGHVVKCYWGKETLDMINPVQQQNQIGYPQPYGQWGQWYGNAQQIGQYMPNGWQVPAYGMYGQAWNQQGFNQTQSSAPWMGPNYGVQPPQGQNGSMLPNQPSGYRVAGYETQ
notes: T-cell intracellular antigen-1 (TIA-1), human, full length, 386 residues (three RRMs followed by the PLD); also called full-length TIA-1; FL; source: recombinant
As to B1, the binding result in series [1] is “binds”.

B2: full-length human TIA-1 A381T (natural protein, UniProt P31483 1-386, looked up)
chain: B1 chain with A381T
notes: TIA-1, human, full length, 386 residues, with the disease-associated missense mutation A381T; source: recombinant
Turning to B2, in series [1], the binding result is listed as “binds”.

B3: full-length human TIA-1 G355R (natural protein, UniProt P31483 1-386, looked up)
chain: B1 chain with G355R
notes: TIA-1, human, full length, 386 residues, with the missense mutation G355R (found in genetic research on ALS/FTD); source: recombinant
For B3, in series [1], the binding result is reported as “binds”.

B4: full-length human TIA-1 E384K (natural protein, UniProt P31483 1-386, looked up)
chain: B1 chain with E384K
notes: TIA-1, human, full length, 386 residues, with the disease-associated missense mutation E384K; source: recombinant
Take B4: the binding result in series [1] is “binds”.

B5: full-length human TIA-1 P362L (natural protein, UniProt P31483 1-386, looked up)
chain: B1 chain with P362L
notes: TIA-1, human, full length, 386 residues, with the disease-associated missense mutation P362L; source: recombinant
Take B5: the binding result in series [1] is reported as “binds”.

B6: synthesized peptide of the 25-residue TIA-1 fibril core (TFC peptide), residues 336-360 (peptide, UniProt P31483 336-360, looked up)
peptide: GQAWNQQGFNQTQSSAPWMGPNYGV
notes: TIA-1, human, fibril core region, residues 336-360 (25 residues); also called TFC peptide fibrils; TFC fibrils; source: synthetic peptide
With B6, the binding result in series [2] is “binds”.

B7: human wild-type TIA-1 short prion-like domain (sPLD), residues 320-386 (domain or fragment, UniProt P31483 320-386, looked up)
chain: GQYMPNGWQVPAYGMYGQAWNQQGFNQTQSSAPWMGPNYGVQPPQGQNGSMLPNQPSGYRVAGYETQ
notes: T-cell intracellular antigen-1 (TIA-1), human, 386 residues; short PLD, residues 320-386; Only residues 336-360 are resolved in the fibril structure; also called WT TIA-1 sPLD; TIA-1 sPLD
In the case of B7, the binding result in series [3] is reported as “binds”.

B8: human TIA-1 sPLD (residues 320-386) W339A (domain or fragment, UniProt P31483 320-386, looked up)
chain: B7 chain with W20A
notes: TIA-1, human, short PLD, residues 320-386, with W339A
Take B8: in series [4], the binding result was “binds”.

B9: human TIA-1 sPLD (residues 320-386) with the G355R missense mutation (domain or fragment, UniProt P31483 320-386, looked up)
chain: B7 chain with G36R
notes: TIA-1, human, short PLD, residues 320-386, with G355R (found in genetic research on ALS/FTD); Only residues 334-349 are resolved in the fibril structure; also called G355R TIA-1 sPLD; TIA-1 G355R fibrils
B9: the binding result in series [3] is given as “binds”.

B10: human TIA-1 sPLD (residues 320-386) A381T (domain or fragment, UniProt P31483 320-386, looked up)
chain: B7 chain with A62T
notes: TIA-1, human, short PLD, residues 320-386, with the disease-associated missense mutation A381T
As to B10, in series [4], the binding result is on record as “binds”.

B11: human TIA-1 sPLD (residues 320-386) E384K (domain or fragment, UniProt P31483 320-386, looked up)
chain: B7 chain with E65K
notes: TIA-1, human, short PLD, residues 320-386, with the disease-associated missense mutation E384K
On to B11, for which the binding result in series [4] is given as “binds”.

B12: human TIA-1 sPLD (residues 320-386) M354A (domain or fragment, UniProt P31483 320-386, looked up)
chain: B7 chain with M35A
notes: TIA-1, human, short PLD, residues 320-386, with M354A
As to B12, in series [4], the binding result is reported as “binds”.

B13: human TIA-1 sPLD (residues 320-386) P362L (domain or fragment, UniProt P31483 320-386, looked up)
chain: B7 chain with P43L
notes: TIA-1, human, short PLD, residues 320-386, with the disease-associated missense mutation P362L
For the protein B13, the binding result in series [4] is on record as “binds”.

B14: human TIA-1 sPLD (residues 320-386) Q348L (domain or fragment, UniProt P31483 320-386, looked up)
chain: B7 chain with Q29L
notes: TIA-1, human, short PLD, residues 320-386, with Q348L
In the case of B14, in series [4], the binding result is given as “binds”.

B15: human TIA-1 sPLD (residues 320-386) Q346L (domain or fragment, UniProt P31483 320-386, looked up)
chain: B7 chain with Q27L
notes: TIA-1, human, short PLD, residues 320-386, with Q346L
For the protein B15, the binding result in series [4] is on record as “binds”.

B16: human TIA-1 sPLD (residues 320-386) W353A (domain or fragment, UniProt P31483 320-386, looked up)
chain: B7 chain with W34A
notes: TIA-1, human, short PLD, residues 320-386, with W353A
With B16, the binding result in series [4] was “binds”.

B17: human TIA-1 sPLD (residues 320-386) G343P (domain or fragment, UniProt P31483 320-386, looked up)
chain: B7 chain with G24P
notes: TIA-1, human, short PLD, residues 320-386, with G343P
Turning to B17, in series [4], the binding result is listed as “binds”.
